Measured values as given in IntAct's records for PubMed 21673656.

B1: Flagellar motor switch protein FliM (Escherichia coli (strain K12)), P06974 (parent)
chain: MGDSILSQAEIDALLNGDSEVKDEPTASVSGESDIRPYDPNTQRRVVRERLQALEIINERFARHFRMGLFNLLRRSPDITVGAIRIQPYHEFARNLPVPTNLNLIHLKPLRGTGLVVFSPSLVFIAVDNLFGGDGRFPTKVEGREFTHTEQRVINRMLKLALEGYSDAWKAINPLEVEYVRSEMQVKFTNITTSPNDIVVNTPFHVEIGNLTGEFNICLPFSMIEPLRELLVNPPLENSRNEDQNWRDNLVRQVQHSQLELVANFADISLRLSQILKLNPGDVLPIEKPDRIIAHVDGVPVLTSQYGTLNGQYALRIEHLINPILNSLNEEQPK
partner: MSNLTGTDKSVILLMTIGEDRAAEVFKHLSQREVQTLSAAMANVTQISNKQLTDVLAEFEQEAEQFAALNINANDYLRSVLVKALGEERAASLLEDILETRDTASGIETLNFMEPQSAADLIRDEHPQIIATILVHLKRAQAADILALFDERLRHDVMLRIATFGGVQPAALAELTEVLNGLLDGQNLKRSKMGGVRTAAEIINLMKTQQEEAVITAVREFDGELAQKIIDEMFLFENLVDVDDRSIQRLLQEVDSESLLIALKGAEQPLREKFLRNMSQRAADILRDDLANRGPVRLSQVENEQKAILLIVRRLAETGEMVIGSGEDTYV
B2: Flagellar motor switch protein FliG (Escherichia coli (strain K12)), P0ABZ1 (parent)
chain: B1 partner
partner: B1 chain

Variants of: B1
Settings: with flig_ecoli fliG

| Variant | effect of a mutation on the interaction |
| --- | --- |
| MGDSILSQAEIDALLNGDSEVKDEPTASVSGESDIRPYDPNTQRRVVRERLQALEIINERFARHFRMGLFNLLRRSPDITVGAIRIQPYHEFARNLPVPTNLNLIHLKPLRGTGLVVFSPSLVFIAVDNLFGWDGRFPTKVEGREFTHTEQRVINRMLKLALEGYSDAWKAINPLEVEYVRSEMQVKFTNITTSPNDIVVNTPFHVEIGNLTGEFNICLPFSMIEPLRELLVNPPLENSRNEDQNWRDNLVRQVQHSQLELVANFADISLRLSQILKLNPGDVLPIEKPDRIIAHVDGVPVLTSQYGTLNGQYALRIEHLINPILNSLNEEQPK [G133W] | disrupting interaction |

Variants of: B1
Settings: with flig_ecoli fliG, P0ABZ1

| Variant | effect of a mutation on the interaction |
| --- | --- |
| MGDSILSQAEIDALLNGDSEVKDEPTASVSGESDIRPYDPNTQRRVVRERLQALEIINERFARHFRMGLFNLLRRSPDITVGAIRIQPYHEFARNLPVPTNLNLIHLKPLRGTGLVVFSPSLVFIAVDNLFGGDGRFPTKVEGREFTHCEQRVINRMLKLALEGYSDAWKAINPLEVEYVRSEMQVKFTNITTSPNDIVVNTPFHVEIGNLTGEFNICLPFSMIEPLRELLVNPPLENSRNEDQNWRDNLVRQVQHSQLELVANFADISLRLSQILKLNPGDVLPIEKPDRIIAHVDGVPVLTSQYGTLNGQYALRIEHLINPILNSLNEEQPK [T149C] | increasing interaction |

Variants of: B1
Settings: with flig_ecoli fliG
Remark: another data set of the same source

| Variant | effect of a mutation on the interaction |
| --- | --- |
| MGDSILSQAEIDALLNGDSEVKDEPTASVSGESDIRPYDPNTQRRVVRERLQALEIINERFARHFRMGLFNLLRRSPDITVGAIRIQPYHEFARNLPVPTNLNLIHLKPLRGTGLVVFSPSLVFIAVDNLFGGDGRFPTKVEGREFTHDEQRVINRMLKLALEGYSDAWKAINPLEVEYVRSEMQVKFTNITTSPNDIVVNTPFHVEIGNLTGEFNICLPFSMIEPLRELLVNPPLENSRNEDQNWRDNLVRQVQHSQLELVANFADISLRLSQILKLNPGDVLPIEKPDRIIAHVDGVPVLTSQYGTLNGQYALRIEHLINPILNSLNEEQPK [T149D] | decreasing interaction |

Variants of: B1
Settings: with flig_ecoli fliG
Remark: another data set of the same source

| Variant | effect of a mutation on the interaction |
| --- | --- |
| MGDSILSQAEIDALLNGDSEVKDEPTASVSGESDIRPYDPNTQRRVVRERLQALEIINERFARHFRMGLFNLLRRSPDITVGAIRIQPYHEFARNLPVPTNLNLIHLKPLRGTGLVVFSPSLVFIAVDNLFGGDGRFPTKVEGREFTHTEQRVINDMLKLALEGYSDAWKAINPLEVEYVRSEMQVKFTNITTSPNDIVVNTPFHVEIGNLTGEFNICLPFSMIEPLRELLVNPPLENSRNEDQNWRDNLVRQVQHSQLELVANFADISLRLSQILKLNPGDVLPIEKPDRIIAHVDGVPVLTSQYGTLNGQYALRIEHLINPILNSLNEEQPK [R156D] | disrupting interaction |

Variants of: B1
Settings: with flig_ecoli fliG, P0ABZ1
Remark: another data set of the same source

| Variant | effect of a mutation on the interaction |
| --- | --- |
| MGDSILSQAEIDALLNGDSEVKDEPTASVSGESDIRPYDPNTQRRVVRERLQALEIINERFARHFRMGLFNLLRRSPDITVGAIRIQPYHEFARNLPVPTNLNLIHLKPLRGTGLVVFSPSLVFIAVDNLCGGDGRFPTKVEGREFTHTEQRVINRMLKLALEGYSDAWKAINPLEVEYVRSEMQVKFTNITTSPNDIVVNTPFHVEIGNLTGEFNICLPFSMIEPLRELLVNPPLENSRNEDQNWRDNLVRQVQHSQLELVANFADISLRLSQILKLNPGDVLPIEKPDRIIAHVDGVPVLTSQYGTLNGQYALRIEHLINPILNSLNEEQPK [F131C] | increasing interaction |

Variants of: B1
Settings: with flig_ecoli fliG
Remark: another data set of the same source

| Variant | effect of a mutation on the interaction |
| --- | --- |
| MGDSILSQAEIDALLNGDSEVKDEPTASVSGESDIRPYDPNTQRRVVRERLQALEIINERFARHFRMGLFNLLRRSPDITVGAIRIQPYHEFARNLPVPTNLNLIHLKPLRGTGLVVFSPSLVFIAVDNLDGGDGRFPTKVEGREFTHTEQRVINRMLKLALEGYSDAWKAINPLEVEYVRSEMQVKFTNITTSPNDIVVNTPFHVEIGNLTGEFNICLPFSMIEPLRELLVNPPLENSRNEDQNWRDNLVRQVQHSQLELVANFADISLRLSQILKLNPGDVLPIEKPDRIIAHVDGVPVLTSQYGTLNGQYALRIEHLINPILNSLNEEQPK [F131D] | disrupting interaction |

Variants of: B1
Settings: with flig_ecoli fliG
Remark: another data set of the same source

| Variant | effect of a mutation on the interaction |
| --- | --- |
| MGDSILSQAEIDALLNGDSEVKDEPTASVSGESDIRPYDPNTQRRVVRERLQALEIINERFARHFRMGLFNLLRRSPDITVGAIRIQPYHEFARNLPVPTNLNLIHLKPLRGTGLVVFSPSLVFIAVDNLFGGDGRFPTKVEGREFTHTEQRCINRMLKLALEGYSDAWKAINPLEVEYVRSEMQVKFTNITTSPNDIVVNTPFHVEIGNLTGEFNICLPFSMIEPLRELLVNPPLENSRNEDQNWRDNLVRQVQHSQLELVANFADISLRLSQILKLNPGDVLPIEKPDRIIAHVDGVPVLTSQYGTLNGQYALRIEHLINPILNSLNEEQPK [V153C] | increasing interaction |

Variants of: B1
Settings: with flig_ecoli fliG
Remark: another data set of the same source

| Variant | effect of a mutation on the interaction |
| --- | --- |
| MGDSILSQAEIDALLNGDSEVKDEPTASVSGESDIRPYDPNTQRRVVRERLQALEIINERFARHFRMGLFNLLRRSPDITVGAIRIQPYHEFARNLPVPTNLNLIHLKPLRGTGLVVFSPSLVFIAVDNLFGGDGRFPTKVEGREFTHTEQRDINRMLKLALEGYSDAWKAINPLEVEYVRSEMQVKFTNITTSPNDIVVNTPFHVEIGNLTGEFNICLPFSMIEPLRELLVNPPLENSRNEDQNWRDNLVRQVQHSQLELVANFADISLRLSQILKLNPGDVLPIEKPDRIIAHVDGVPVLTSQYGTLNGQYALRIEHLINPILNSLNEEQPK [V153D] | decreasing interaction |

Variants of: B1
Settings: with flig_ecoli fliG
Remark: another data set of the same source

| Variant | effect of a mutation on the interaction |
| --- | --- |
| MGDSILSQAEIDALLNGDSEVKDEPTASVSGESDIRPYDPNTQRRVVRERLQALEIINERFARHFRMGLFNLLRRSPDITVGAIRIQPYHEFARNLPVPTNLNLIHLKPLRGTGLVVFSPSLVFIAVDNLFGGDGRFPTKVEGREFTHTEQRVINRMLKEALEGYSDAWKAINPLEVEYVRSEMQVKFTNITTSPNDIVVNTPFHVEIGNLTGEFNICLPFSMIEPLRELLVNPPLENSRNEDQNWRDNLVRQVQHSQLELVANFADISLRLSQILKLNPGDVLPIEKPDRIIAHVDGVPVLTSQYGTLNGQYALRIEHLINPILNSLNEEQPK [L160E] | decreasing interaction |

Variants of: B2
Settings: with flim_ecoli fliM, P06974

| Variant | effect of a mutation on the interaction |
| --- | --- |
| MSNLTGTDKSVILLMTIGEDRAAEVFKHLSQREVQTLSAAMANVTQISNKQLTDVLAEFEQEAEQFAALNINANDYLRSVLVKALGEERAASLLEDILETRDTASGIETLNFMEPQSAADLIRDEHPQIIATILVHLKRAQAADILALFDERLRHDVMLRIATFGGVQPAALAELTEVLNGLLDGQNLKRSKMGGVRTAAEIINLCKTQQEEAVITAVREFDGELAQKIIDEMFLFENLVDVDDRSIQRLLQEVDSESLLIALKGAEQPLREKFLRNMSQRAADILRDDLANRGPVRLSQVENEQKAILLIVRRLAETGEMVIGSGEDTYV [M206C] | increasing interaction |

Variants of: B2
Settings: with flim_ecoli fliM

| Variant | effect of a mutation on the interaction |
| --- | --- |
| MSNLTGTDKSVILLMTIGEDRAAEVFKHLSQREVQTLSAAMANVTQISNKQLTDVLAEFEQEAEQFAALNINANDYLRSVLVKALGEERAASLLEDILETRDTASGIETLNFMEPQSAADLIRDEHPQIIATILVHLKRAQAADILALFDERLRHDVMLRIATFGGVQPAALAELTEVLNGLLDGQNLKRSKMGGVRTAAEIINLMKTQQEEAVITAVREFDGEWAQKIIDEMFLFENLVDVDDRSIQRLLQEVDSESLLIALKGAEQPLREKFLRNMSQRAADILRDDLANRGPVRLSQVENEQKAILLIVRRLAETGEMVIGSGEDTYV [L225W] | disrupting interaction |

Variants of: B2
Settings: with flim_ecoli fliM
Remark: another data set of the same source

| Variant | effect of a mutation on the interaction |
| --- | --- |
| MSNLTGTDKSVILLMTIGEDRAAEVFKHLSQREVQTLSAAMANVTQISNKQLTDVLAEFEQEAEQFAALNINANDYLRSVLVKALGEERAASLLEDILETRDTASGIETLNFMEPQSAADLIRDEHPQIIATILVHLKRAQAADILALFDERLRHDVMLRIATFGGVQPAALAELTEVLNGLLDGQNLKRSKMGGVRTAAEIINLMKTQQEEAVITAVREFDGECAQKIIDEMFLFENLVDVDDRSIQRLLQEVDSESLLIALKGAEQPLREKFLRNMSQRAADILRDDLANRGPVRLSQVENEQKAILLIVRRLAETGEMVIGSGEDTYV [L225C] | increasing interaction |

Variants of: B2
Settings: with flim_ecoli fliM
Remark: another data set of the same source

| Variant | effect of a mutation on the interaction |
| --- | --- |
| MSNLTGTDKSVILLMTIGEDRAAEVFKHLSQREVQTLSAAMANVTQISNKQLTDVLAEFEQEAEQFAALNINANDYLRSVLVKALGEERAASLLEDILETRDTASGIETLNFMEPQSAADLIRDEHPQIIATILVHLKRAQAADILALFDERLRHDVMLRIATFGGVQPAALAELTEVLNGLLDGQNLKRSKMGGVRTAAEWINLMKTQQEEAVITAVREFDGELAQKIIDEMFLFENLVDVDDRSIQRLLQEVDSESLLIALKGAEQPLREKFLRNMSQRAADILRDDLANRGPVRLSQVENEQKAILLIVRRLAETGEMVIGSGEDTYV [I202W] | disrupting interaction |

Variants of: B2
Settings: with flim_ecoli fliM, P06974
Remark: another data set of the same source

| Variant | effect of a mutation on the interaction |
| --- | --- |
| MSNLTGTDKSVILLMTIGEDRAAEVFKHLSQREVQTLSAAMANVTQISNKQLTDVLAEFEQEAEQFAALNINANDYLRSVLVKALGEERAASLLEDILETRDTASGIETLNFMEPQSAADLIRDEHPQCIATILVHLKRAQAADILALFDERLRHDVMLRIATFGGVQPAALAELTEVLNGLLDGQNLKRSKMGGVRTAAEIINLMKTQQEEAVITAVREFDGELAQKIIDEMFLFENLVDVDDRSIQRLLQEVDSESLLIALKGAEQPLREKFLRNMSQRAADILRDDLANRGPVRLSQVENEQKAILLIVRRLAETGEMVIGSGEDTYV [I129C] | increasing interaction |
